B1: Anti-CD154 antibody (SLAPH0336a/SLAPL0336a) with Fc variant LALA+ACT3 (SG1044) (antibody)
heavy: EVQLVESGGGSVKPGGSLKLSCAASGFTFSDHYMYWVRQTPEKRLEWVAIISGGGSYTSYPDSMKGRFTISRDNAKNILHLQMSSLKSEDTAMYYCTRESNGKPGFAYWGQGTLVTVSAASTKGPSVFPLAPSSKSTSGGTAALGCLVKDYFPEPVTVSWNSGALTSGVHTFPAVLQSSGLYSLSSVVTVPSSSLGTQTYICNVNHKPSNTKVDKRVEPKSCDKTHTCPPCPAPEAAGGPSVFLFPPKPKDTLMISRTPEVTCVVVDVSHEDPEVKFNWYVDGVEVHNAKTKPREEQYNSTYRVVSVLTVLHQDWLNGKEYKCKVSNKALPAPIEKTISKAKGQPREPQVYTLPPSREEMTKNQVSLTCLVKGFYPSDIAVEWESNGQPENNYKTTPPVLDSDGSFFLYSKLTVDKSRWQQGNVFSCSVLHEALHAHTTRKELSLSP
light: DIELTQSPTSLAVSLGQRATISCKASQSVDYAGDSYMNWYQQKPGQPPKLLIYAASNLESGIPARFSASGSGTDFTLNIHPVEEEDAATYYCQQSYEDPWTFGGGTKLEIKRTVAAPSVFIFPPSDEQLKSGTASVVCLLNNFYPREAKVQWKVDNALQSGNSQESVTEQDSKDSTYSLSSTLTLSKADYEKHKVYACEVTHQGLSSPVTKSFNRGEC
B2: Anti-CD154 antibody (SLAPH0336a/SLAPL0336a) with Fc variant LALA+ACT5+KAES (SG1106) (antibody)
heavy: EVQLVESGGGSVKPGGSLKLSCAASGFTFSDHYMYWVRQTPEKRLEWVAIISGGGSYTSYPDSMKGRFTISRDNAKNILHLQMSSLKSEDTAMYYCTRESNGKPGFAYWGQGTLVTVSAASTKGPSVFPLAPSSKSTSGGTAALGCLVKDYFPEPVTVSWNSGALTSGVHTFPAVLQSSGLYSLSSVVTVPSSSLGTQTYICNVNHKPSNTKVDKRVEPKSCDKTHTCPPCPAPEAAGGPSVFLFPPKPKDTLMISRTPEVTCVVVDVSHEDPEVKFNWYVDGVEVHNAKTKPREEQYNSTYRVVSVLTVLHQDWLNGKEYKCKVSNAALPAPISKTISKAKGQPREPQVYTLPPSREEMTKNQVSLTCLVKGFYPSDIAVEWESNGQPENNYKTTPPVLDSDGSFFLYSKLTVDKSRWQQGNVFSCSVLHEALHAHYTRKELSLSP
light: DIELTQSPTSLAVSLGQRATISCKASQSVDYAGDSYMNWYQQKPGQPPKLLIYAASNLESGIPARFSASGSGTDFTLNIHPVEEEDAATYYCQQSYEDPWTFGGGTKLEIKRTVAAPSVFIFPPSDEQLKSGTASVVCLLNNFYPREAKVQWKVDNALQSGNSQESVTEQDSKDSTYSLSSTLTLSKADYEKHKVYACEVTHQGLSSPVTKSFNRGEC
notes: also called LALA+KAES+ACT5
B3: Anti-CD154 antibody (SLAPH0336a/SLAPL0336a) with Fc variant LALA+ACT5 (SG1045) (antibody)
heavy: EVQLVESGGGSVKPGGSLKLSCAASGFTFSDHYMYWVRQTPEKRLEWVAIISGGGSYTSYPDSMKGRFTISRDNAKNILHLQMSSLKSEDTAMYYCTRESNGKPGFAYWGQGTLVTVSAASTKGPSVFPLAPSSKSTSGGTAALGCLVKDYFPEPVTVSWNSGALTSGVHTFPAVLQSSGLYSLSSVVTVPSSSLGTQTYICNVNHKPSNTKVDKRVEPKSCDKTHTCPPCPAPEAAGGPSVFLFPPKPKDTLMISRTPEVTCVVVDVSHEDPEVKFNWYVDGVEVHNAKTKPREEQYNSTYRVVSVLTVLHQDWLNGKEYKCKVSNKALPAPIEKTISKAKGQPREPQVYTLPPSREEMTKNQVSLTCLVKGFYPSDIAVEWESNGQPENNYKTTPPVLDSDGSFFLYSKLTVDKSRWQQGNVFSCSVLHEALHAHYTRKELSLSP
light: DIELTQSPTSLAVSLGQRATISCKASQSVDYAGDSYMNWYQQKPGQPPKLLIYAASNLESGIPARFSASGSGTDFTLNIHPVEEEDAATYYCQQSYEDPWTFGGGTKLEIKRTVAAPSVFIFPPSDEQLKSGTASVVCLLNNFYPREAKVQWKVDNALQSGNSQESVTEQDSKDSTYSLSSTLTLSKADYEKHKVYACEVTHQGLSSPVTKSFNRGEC
B4: Anti-CD154 antibody (SLAPH0336a/SLAPL0336a) with Fc variant LALA+ACT3+KAES (SG1105) (antibody)
heavy: EVQLVESGGGSVKPGGSLKLSCAASGFTFSDHYMYWVRQTPEKRLEWVAIISGGGSYTSYPDSMKGRFTISRDNAKNILHLQMSSLKSEDTAMYYCTRESNGKPGFAYWGQGTLVTVSAASTKGPSVFPLAPSSKSTSGGTAALGCLVKDYFPEPVTVSWNSGALTSGVHTFPAVLQSSGLYSLSSVVTVPSSSLGTQTYICNVNHKPSNTKVDKRVEPKSCDKTHTCPPCPAPEAAGGPSVFLFPPKPKDTLMISRTPEVTCVVVDVSHEDPEVKFNWYVDGVEVHNAKTKPREEQYNSTYRVVSVLTVLHQDWLNGKEYKCKVSNAALPAPISKTISKAKGQPREPQVYTLPPSREEMTKNQVSLTCLVKGFYPSDIAVEWESNGQPENNYKTTPPVLDSDGSFFLYSKLTVDKSRWQQGNVFSCSVLHEALHAHTTRKELSLSP
light: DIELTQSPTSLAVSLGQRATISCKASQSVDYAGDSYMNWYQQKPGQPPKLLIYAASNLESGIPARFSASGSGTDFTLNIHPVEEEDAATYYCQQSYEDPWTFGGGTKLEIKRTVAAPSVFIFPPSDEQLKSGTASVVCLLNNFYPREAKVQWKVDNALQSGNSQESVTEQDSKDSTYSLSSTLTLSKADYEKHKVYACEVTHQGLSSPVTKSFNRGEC
notes: also called LALA+KAES+ACT3

How the values were obtained:
Soluble human FcRn = target: T1, Soluble human FcRn (human, UniProt P55899 24-297; P61769 21-119); assay: SPR (Biacore T200, pH 7.4, 25 °C): biotinylated FcRn captured on a CAP chip; antibody injected at 100 nM alone (Ab alone) or as 1:1 complex with trimeric CD154 (CD154 IC); binding level / capture level
T1 construct: also called Biotinylated-FcRn

human FcγRIIa (167R) = target: T2, human FcγRIIa (167R) (human, UniProt P12318 36-217); assay: SPR (Biacore T200, pH 7.4, 25 °C): His-tagged FcγR captured by anti-His antibody; antibody injected at 100 nM alone (Ab alone) or as 1:1 complex with trimeric CD154 (CD154 IC); binding level / capture level [C]
T2 construct: also called human FcγR2a allelic variant 167R
T2 chain: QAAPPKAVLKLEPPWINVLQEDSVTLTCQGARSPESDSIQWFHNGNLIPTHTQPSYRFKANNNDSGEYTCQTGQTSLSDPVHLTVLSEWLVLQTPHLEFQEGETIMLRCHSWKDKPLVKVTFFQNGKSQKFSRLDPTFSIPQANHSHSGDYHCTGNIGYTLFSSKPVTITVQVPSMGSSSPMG

human FcγRIIIb (NA2) = target: T3, human FcγRIIIb (NA2) (human, UniProt O75015 17-200); assay: SPR (Biacore T200, pH 7.4, 25 °C): His-tagged FcγR captured by anti-His antibody; antibody injected at 100 nM alone (Ab alone) or as 1:1 complex with trimeric CD154 (CD154 IC); binding level / capture level [H]
T3 construct: also called human FcγR3b allelic variant NA2
T3 chain: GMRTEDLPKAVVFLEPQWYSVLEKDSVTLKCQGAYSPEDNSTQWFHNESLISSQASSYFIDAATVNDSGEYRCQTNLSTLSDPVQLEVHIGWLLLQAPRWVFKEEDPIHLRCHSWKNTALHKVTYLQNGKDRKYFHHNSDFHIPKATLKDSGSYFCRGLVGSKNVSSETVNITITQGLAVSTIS

mouse FcγRIV = target: T4, mouse FcγRIV (mouse, UniProt A0A0B4J1G0 21-203); assay: SPR (Biacore T200, pH 7.4, 25 °C): His-tagged FcγR captured by anti-His antibody; antibody injected at 100 nM alone (Ab alone) or as 1:1 complex with trimeric CD154 (CD154 IC); binding level / capture level [D]
T4 construct: also called mFcγRIV; mouse FcγR4
T4 sequence: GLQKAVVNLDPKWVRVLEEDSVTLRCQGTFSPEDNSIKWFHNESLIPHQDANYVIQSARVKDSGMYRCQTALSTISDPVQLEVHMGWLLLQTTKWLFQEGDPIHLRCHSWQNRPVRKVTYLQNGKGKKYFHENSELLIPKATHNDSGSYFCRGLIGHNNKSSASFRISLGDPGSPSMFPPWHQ

T1 sequence (P55899 24-297 limits assumed, chain 1 of 2): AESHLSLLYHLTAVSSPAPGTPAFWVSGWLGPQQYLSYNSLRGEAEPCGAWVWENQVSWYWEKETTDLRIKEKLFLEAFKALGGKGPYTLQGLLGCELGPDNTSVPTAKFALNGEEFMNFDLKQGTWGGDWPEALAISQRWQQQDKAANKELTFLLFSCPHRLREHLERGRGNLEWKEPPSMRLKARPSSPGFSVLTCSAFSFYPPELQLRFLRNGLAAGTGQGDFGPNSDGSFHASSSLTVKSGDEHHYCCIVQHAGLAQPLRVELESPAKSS
T1 sequence (P61769 21-119 limits assumed, chain 2 of 2): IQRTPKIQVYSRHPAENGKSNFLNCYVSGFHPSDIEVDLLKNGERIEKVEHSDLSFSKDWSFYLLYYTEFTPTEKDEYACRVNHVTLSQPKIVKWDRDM

Binder | binding result (Soluble human FcRn) | binding result (human FcγRIIa (167R)) | binding result (human FcγRIIIb (NA2)) | binding result (mouse FcγRIV)
B1 | binds | no binding (tested: 100 nM) | no binding (tested: 100 nM) | no binding (tested: 100 nM)
B2 | binds | no binding (tested: 100 nM) | no binding (tested: 100 nM) | no binding (tested: 100 nM)
B3 | binds | no binding (tested: 100 nM) | no binding (tested: 100 nM) | no binding (tested: 100 nM)
B4 | binds | no binding (tested: 100 nM) | no binding (tested: 100 nM) | no binding (tested: 100 nM)

Source: patent publication US20190218277A1 (Chugai, published 2019)
